Laboratory results reported in article PMC11183071 (Communications Biology, 2024).

T1: Clostridium perfringens enterotoxin with C-terminal decahistidine tag (CpE-His10) (Clostridium perfringens, UniProt P01558 1-319)
T1 sequence: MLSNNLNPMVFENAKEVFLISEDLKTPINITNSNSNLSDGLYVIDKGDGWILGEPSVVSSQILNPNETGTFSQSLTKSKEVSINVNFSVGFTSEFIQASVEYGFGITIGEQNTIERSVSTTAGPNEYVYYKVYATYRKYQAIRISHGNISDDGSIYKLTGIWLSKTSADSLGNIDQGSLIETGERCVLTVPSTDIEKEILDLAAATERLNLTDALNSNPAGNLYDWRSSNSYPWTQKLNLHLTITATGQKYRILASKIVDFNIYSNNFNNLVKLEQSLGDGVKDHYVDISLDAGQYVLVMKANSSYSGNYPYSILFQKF

T2: pre-formed non-detergent hsCLDN-4/cCpE-His10 complex (hsCLDN-4 in amphipol A8-35 or in nanodiscs) (Homo sapiens CLDN4; Clostridium …)
T2 chain 1: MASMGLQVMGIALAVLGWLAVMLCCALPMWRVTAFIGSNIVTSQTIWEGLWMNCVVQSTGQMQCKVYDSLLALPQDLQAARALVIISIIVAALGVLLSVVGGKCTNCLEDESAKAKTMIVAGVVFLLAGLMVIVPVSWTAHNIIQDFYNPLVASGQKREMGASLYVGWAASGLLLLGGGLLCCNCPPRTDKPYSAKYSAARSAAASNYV
T2 chain 2: not shown

T3: hsCLDN-4/cCpE complex (tagless proteins) (Homo sapiens CLDN4; Clostridium …)
T3 chain 1: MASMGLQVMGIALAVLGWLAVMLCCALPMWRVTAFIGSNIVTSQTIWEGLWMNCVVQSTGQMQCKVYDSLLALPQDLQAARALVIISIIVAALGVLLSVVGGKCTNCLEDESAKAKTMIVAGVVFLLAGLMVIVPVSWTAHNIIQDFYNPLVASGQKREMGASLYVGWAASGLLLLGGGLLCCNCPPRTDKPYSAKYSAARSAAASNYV
T3 chain 2: not shown


Tests used:
[1] = target: T1, Clostridium perfringens enterotoxin …; assay: BLI; conditions: both partners purified
[2] = target: T4, pre-formed hsCLDN-3-Biotin/CpE-His10 complex (Homo sapiens CLDN3; Clostridium …, UniProt O15551;P01558); assay: BLI; conditions: both partners purified
T4 construct: source: pre-formed from the purified proteins (same method as the cCpE complexes)

[3] = target: T2, pre-formed non-detergent …; assay: BLI; conditions: both partners purified
[4] = target: T5, C-terminal domain of Clostridium perfringens enterotoxin with decahistidine tag (cCpE-His10) (Clostridium perfringens, UniProt P01558); assay: BLI; conditions: both partners purified
T5 construct: source: insect cells, purified (NiNTA, eluted with imidazole); not shown: His10, C-terminal, kept

[5] = target: T3, hsCLDN-4/cCpE complex (tagless proteins)
[6] = target: C-terminal domain of Clostridium perfringens enterotoxin (cCpE), tagless (Clostridium perfringens, UniProt P01558)

Binder	Kd [1] [nM]	further results
human claudin-9, biotinylated (hsCLDN-9-Biotin) (natural protein, biotin (NHS-PEG4-Biotin) on the N-terminal amine) MASTGLELLGMTLAVLGWLGTLVSCALPLWKVTAFIGNSIVVAQVVWEGLWMSCVVQSTGQMQCKVYDSLLALPQDLQAARALCVIALLLALLGLLVAITGAQCTTCVEDEGAKARIVLTAGVILLLAGILVLIPVCWTAHAIIQDFYNPLVAEALKRELGASLYLGWAAAALLMLGGGLLCCTCPPPQVERPRGPRLGYSIPSRSGASGLDKRDYV	10.5 ± 0.2	
COP-1 (CpE Obstructing Protein 1), synthetic antibody fragment (Fab, V domains shown, also called sFab) VH: EVQLVESGGGLVQPGGSLRLSCAASGFNFSSSYIHWVRQAPGKGLEWVASISSSSGSTSYADSVKGRFTISADTSKNTAYLQMNSLRAEDTAVYYCARWFHPWWWWEYLFRGAIDYWGQGTLVTVSS VL: DIQMTQSPSSLSASVGDRVTITCRASQSVSSAVAWYQQKPGKAPKLLIYSASSLYSGVPSRFSGSRSGTDFTLTISSLQPEDFATYYCQQSSSSLITFGQGTKVEIK		binding result [2]: no binding (tested: 250 nM COP-1); Kd [3]: < 100 nM; binding result [4]: no binding (tested: 0–750 nM COP-1)
mouse claudin-4, biotinylated (mmCLDN-4-Biotin) (natural protein, biotin (NHS-PEG4-Biotin) on the N-terminal amine) MASMGLQVLGISLAVLGWLGIILSCALPMWRVTAFIGSNIVTAQTSWEGLWMNCVVQSTGQMQCKMYDSMLALPQDLQAARALMVISIIVGALGMLLSVVGGKCTNCMEDETVKAKIMITAGAVFIVASMLIMVPVSWTAHNVIRDFYNPMVASGQKREMGASLYVGWAASGLLLLGGGLLCCSCPPRSNDKPYSAKYSAARSVPASNYV	17.9 ± 0.2	
human claudin-3, biotinylated (hsCLDN-3-Biotin) (natural protein, biotin (NHS-PEG4-Biotin) on the N-terminal amine) MSMGLEITGTALAVLGWLGTIVCCALPMWRVSAFIGSNIITSQNIWEGLWMNCVVQSTGQMQCKVYDSLLALPQDLQAARALIVVAILLAAFGLLVALVGAQCTNCVQDDTAKAKITIVAGVLFLLAALLTLVPVSWSANTIIRDFYNPVVPEAQKREMGAGLYVGWAAAALQLLGGALLCCSCPPREKKYTATKVVYSAPRSTGPGASLGTGYDRKDYV	77.6 ± 0.9	
mouse claudin-3, biotinylated (mmCLDN-3-Biotin) (natural protein, biotin (NHS-PEG4-Biotin) on the N-terminal amine) MSMGLEITGTSLAVLGWLCTIVCCALPMWRVSAFIGSSIITAQITWEGLWMNCVVQSTGQMQCKMYDSLLALPQDLQAARALIVVSILLAAFGLLVALVGAQCTNCVQDETAKAKITIVAGVLFLLAALLTLVPVSWSANTIIRDFYNPLVPEAQKREMGAGLYVGWAAAALQLLGGALLCCSCPPRDKYAPTKILYSAPRSTGPGTGTGTAYDRKDYV	16.1 ± 0.2	
COP-3 (antibody, V domains shown) VH: EVQLVESGGGLVQPGGSLRLSCAASGFNFYSSSIHWVRQAPGKGLEWVAYISSYSGYTYYADSVKGRFTISADTSKNTAYLQMNSLRAEDTAVYYCARGYGYFDYNFSVGYALDYWGQGTLVTVSS VL: DIQMTQSPSSLSASVGDRVTITCRASQSVSSAVAWYQQKPGKAPKLLIYSASSLYSGVPSRFSGSRSGTDFTLTISSLQPEDFATYYCQQSHPWYYPITFGQGTKVEIK		binding result [5]: binds; binding result [6]: binds
human claudin-4, biotinylated (hsCLDN-4-Biotin) (natural protein, biotin (NHS-PEG4-Biotin) on the N-terminal amine) MASMGLQVMGIALAVLGWLAVMLCCALPMWRVTAFIGSNIVTSQTIWEGLWMNCVVQSTGQMQCKVYDSLLALPQDLQAARALVIISIIVAALGVLLSVVGGKCTNCLEDESAKAKTMIVAGVVFLLAGLMVIVPVSWTAHNIIQDFYNPLVASGQKREMGASLYVGWAASGLLLLGGGLLCCNCPPRTDKPYSAKYSAARSAAASNYV	7.3 ± 0.2	
